Assay results taken from the Human Domainome abundance scans (Beltran et al. 2025).
± gives the uncertainty stated by the source.

B1: Protein C-ets-1, residues 55 to 135; numbered along this chain, P14921 (parent)
chain: GFTKEQQRLGIPKDPRQWTETHVRDWVMWAVNEFSLKGVDFQKFCMNGAALCALGKDCFLELAPDFVGDILWEHLEILQKE

Variants of: B1
Assay: abundance fitness (aPCA) (normalised: wild type 0, dead -1); higher = more abundant; growth selection in yeast, the domain comes from the species named
Conditions: Homo sapiens

Variant | abundance fitness
GFTKEQQRLGIPKDPRQWTETHVRDWVMWAVNEFSLKGVDFQKFRMNGAALCALGKDCFLELAPDFVGDILWEHLEILQKE | -0.024 ± 0.029
GFTKEQQRLGIPKDPRQWTETHVRDWVMWAVNEFSLKGVDFQKFVMNGAALCALGKDCFLELAPDFVGDILWEHLEILQKE | -0.05 ± 0.036
GFTKEQQRLGIPKDPRQWTETHVRDWVMWAVNEFSLKGVDFQKFQMNGAALCALGKDCFLELAPDFVGDILWEHLEILQKE | -0.002 ± 0.059
GFTKEQQRLGIPKDPRQWTETHVRDWVMWAVNEFSLKGVDFQKFWMNGAALCALGKDCFLELAPDFVGDILWEHLEILQKE | -0.041 ± 0.043
GFTKEQQRLGIPKDPRQWTETHVRDWVMWAVNEFSLKGVDFQKFMMNGAALCALGKDCFLELAPDFVGDILWEHLEILQKE | -0.019 ± 0.05
GFTKEQQRLGIPKDPRQWTETHVRDWVMWAVNEFSLKGVDFQKFPMNGAALCALGKDCFLELAPDFVGDILWEHLEILQKE | -0.344 ± 0.038
GFTKEQQRLGIPKDPRQWTETHVRDWVMWAVNEFSLKGVDFQKFHMNGAALCALGKDCFLELAPDFVGDILWEHLEILQKE | 0.052 ± 0.08
GFTKEQQRLGIPKDPRQWTETHVRDWVMWAVNEFSLKGVDFQKFAMNGAALCALGKDCFLELAPDFVGDILWEHLEILQKE | 0.053 ± 0.033
GFTKEQQRLGIPKDPRQWTETHVRDWVMWAVNEFSLKGVDFQKFFMNGAALCALGKDCFLELAPDFVGDILWEHLEILQKE | -0.028 ± 0.081
GFTKEQQRLGIPKDPRQWTETHVRDWVMWAVNEFSLKGVDFQKFTMNGAALCALGKDCFLELAPDFVGDILWEHLEILQKE | -0.007 ± 0.061
GFTKEQQRLGIPKDPRQWTETHVRDWVMWAVNEFSLKGVDFQKFKMNGAALCALGKDCFLELAPDFVGDILWEHLEILQKE | -0.067 ± 0.08
GFTKEQQRLGIPKDPRQWTETHVRDWVMWAVNEFSLKGVDFQKFNMNGAALCALGKDCFLELAPDFVGDILWEHLEILQKE | 0.116 ± 0.11
GFTKEQQRLGIPKDPRQWTETHVRDWVMWAVNEFSLKGVDFQKWCMNGAALCALGKDCFLELAPDFVGDILWEHLEILQKE | -0.138 ± 0.05
GFTKEQQRLGIPKDPRQWTETHVRDWVMWAVNEFSLKGVDFQKPCMNGAALCALGKDCFLELAPDFVGDILWEHLEILQKE | -0.892 ± 0.1
GFTKEQQRLGIPKDPRQWTETHVRDWVMWAVNEFSLKGVDFQKTCMNGAALCALGKDCFLELAPDFVGDILWEHLEILQKE | -0.766 ± 0.16
GFTKEQQRLGIPKDPRQWTETHVRDWVMWAVNEFSLKGVDFQKVCMNGAALCALGKDCFLELAPDFVGDILWEHLEILQKE | -0.539 ± 0.042
GFTKEQQRLGIPKDPRQWTETHVRDWVMWAVNEFSLKGVDFQKRCMNGAALCALGKDCFLELAPDFVGDILWEHLEILQKE | -0.939 ± 0.1

Variant | abundance fitness
GFTKEQQRLGIPKDPRQWTETHVRDWVMWAVNEFSLKGVDFQKQCMNGAALCALGKDCFLELAPDFVGDILWEHLEILQKE | -1.08 ± 0.24
GFTKEQQRLGIPKDPRQWTETHVRDWVMWAVNEFSLKGVDFQKSCMNGAALCALGKDCFLELAPDFVGDILWEHLEILQKE | -0.76 ± 0.067
GFTKEQQRLGIPKDPRQWTETHVRDWVMWAVNEFSLKGVDFQKNCMNGAALCALGKDCFLELAPDFVGDILWEHLEILQKE | -1.01 ± 0.47
GFTKEQQRLGIPKDPRQWTETHVRDWVMWAVNEFSLKGVDFQKFCMMGAALCALGKDCFLELAPDFVGDILWEHLEILQKE | -0.881 ± 0.1
GFTKEQQRLGIPKDPRQWTETHVRDWVMWAVNEFSLKGVDFQKFCMVGAALCALGKDCFLELAPDFVGDILWEHLEILQKE | -0.903 ± 0.081
GFTKEQQRLGIPKDPRQWTETHVRDWVMWAVNEFSLKGVDFQKFCMEGAALCALGKDCFLELAPDFVGDILWEHLEILQKE | -0.165 ± 0.085
GFTKEQQRLGIPKDPRQWTETHVRDWVMWAVNEFSLKGVDFQKFCMKGAALCALGKDCFLELAPDFVGDILWEHLEILQKE | -0.204 ± 0.082
GFTKEQQRLGIPKDPRQWTETHVRDWVMWAVNEFSLKGVDFQKFCMQGAALCALGKDCFLELAPDFVGDILWEHLEILQKE | -0.277 ± 0.049
GFTKEQQRLGIPKDPRQWTETHVRDWVMWAVNEFSLKGVDFQKFCMSGAALCALGKDCFLELAPDFVGDILWEHLEILQKE | -0.003 ± 0.034
GFTKEQQRLGIPKDPRQWTETHVRDWVMWAVNEFSLKGVDFQKFCMPGAALCALGKDCFLELAPDFVGDILWEHLEILQKE | 0.014 ± 0.044
GFTKEQQRLGIPKDPRQWTETHVRDWVMWAVNEFSLKGVDFQKFCMDGAALCALGKDCFLELAPDFVGDILWEHLEILQKE | -0.007 ± 0.084
GFTKEQQRLGIPKDPRQWTETHVRDWVMWAVNEFSLKGVDFQKFCMHGAALCALGKDCFLELAPDFVGDILWEHLEILQKE | -0.152 ± 0.081
GFTKEQQRLGIPKDPRQWTETHVRDWVMWAVNEFSLKGVDFQKFCMCGAALCALGKDCFLELAPDFVGDILWEHLEILQKE | -0.223 ± 0.062
GFTKEQQRLGIPKDPRQWTETHVRDWVMWAVNEFSLKGVDFQKFCMWGAALCALGKDCFLELAPDFVGDILWEHLEILQKE | -1.01 ± 0.1
GFTKEQQRLGIPKDPRQWTETHVRDWVMWAVNEFSLKGVDFQKFCMGGAALCALGKDCFLELAPDFVGDILWEHLEILQKE | -0.185 ± 0.038
GFTKEQQRLGIPKDPRQWTETHVRDWVMWAVNEFSLKGVDFQKFCMLGAALCALGKDCFLELAPDFVGDILWEHLEILQKE | -0.879 ± 0.07
GFTKEQQRLGIPKDPRQWTETHVRDWVMWAVNEFSLKGVDFQKFCMTGAALCALGKDCFLELAPDFVGDILWEHLEILQKE | 0.065 ± 0.061
